System: Escherichia coli TOP10
Experiment: shrunken log2 fold change of peptide-encoding DNA abundance (4.5 h post-induction vs induction); higher = less antimicrobial activity (less host growth inhibition)
Conditions: time post-induction: 4.5 h; library: site-saturation at positions 5, 18, 19, 20
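Also: peptides expressed intracellularly from a pBAD plasmid library in pooled LB shake-flask culture, induced with 0.3% L-arabinose, DNA abundance read by NGS, three biological replicates, DESeq2 with apeglm shrinkage.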

| Sequence | shrunken log2 fold change |
| --- | --- |
| RRIRPRPPRLPRPRPRPMDVPRP | -0.0123 |
| RRIRQRPPRLPRPRPRPWIYPRP | 0.0039 |
| RRIRERPPRLPRPRPRPEVLPRP | 0.28 |
| RRIRTRPPRLPRPRPRPKGPPRP | 0.0618 |
| RRIRDRPPRLPRPRPRPHQGPRP | -0.00184 |
| RRIRVRPPRLPRPRPRPWIIPRP | -0.652 |
| RRIRCRPPRLPRPRPRPGYKPRP | -0.0902 |
| RRIRMRPPRLPRPRPRPDEKPRP | -0.0255 |
| RRIRHRPPRLPRPRPRPQLGPRP | 0.375 |
| RRIRHRPPRLPRPRPRPKRQPRP | -0.0409 |
| RRIRWRPPRLPRPRPRPIHHPRP | -0.332 |
| RRIRGRPPRLPRPRPRPLQDPRP | 0.98 |
| RRIRYRPPRLPRPRPRPEAQPRP | 0.151 |
| RRIRTRPPRLPRPRPRPNNSPRP | -0.61 |
| RRIRARPPRLPRPRPRPGVGPRP | 0.805 |
| RRIRQRPPRLPRPRPRPWWNPRP | -0.123 |
| RRIRKRPPRLPRPRPRPTEAPRP | 0.77 |
| RRIRGRPPRLPRPRPRPMSNPRP | 0.473 |
| RRIRVRPPRLPRPRPRPEGHPRP | -0.0324 |
| RRIRARPPRLPRPRPRPYHLPRP | -0.0107 |
| RRIRMRPPRLPRPRPRPQYRPRP | -0.0939 |
| RRIRKRPPRLPRPRPRPAHCPRP | -0.0571 |
| RRIRARPPRLPRPRPRPQELPRP | 0.0199 |
| RRIRVRPPRLPRPRPRPQKRPRP | -0.0953 |
| RRIRPRPPRLPRPRPRPIEQPRP | 0.000804 |

| Sequence | shrunken log2 fold change |
| --- | --- |
| RRIRYRPPRLPRPRPRPMGSPRP | -0.106 |
| RRIRVRPPRLPRPRPRPDPQPRP | 0.52 |
| RRIRKRPPRLPRPRPRPYKCPRP | -0.168 |
| RRIRGRPPRLPRPRPRPHIQPRP | 0.192 |
| RRIRQRPPRLPRPRPRPNRMPRP | 0.00219 |
| RRIRERPPRLPRPRPRPHILPRP | -0.245 |
| RRIRQRPPRLPRPRPRPNQAPRP | -0.0235 |
| RRIRTRPPRLPRPRPRPLDWPRP | 0.398 |
| RRIRPRPPRLPRPRPRPKFVPRP | -0.0877 |
| RRIRDRPPRLPRPRPRPNKTPRP | -0.132 |
| RRIRARPPRLPRPRPRPGIHPRP | 0.37 |
| RRIRFRPPRLPRPRPRPWHQPRP | -0.338 |
| RRIRYRPPRLPRPRPRPQHEPRP | 0.0438 |
| RRIRERPPRLPRPRPRPGSGPRP | 0.101 |
| RRIRKRPPRLPRPRPRPDSEPRP | -0.0164 |
| RRIRLRPPRLPRPRPRPAVQPRP | -0.249 |
| RRIRRRPPRLPRPRPRPQKMPRP | -0.02 |
| RRIRRRPPRLPRPRPRPTMDPRP | 0.147 |
| RRIRVRPPRLPRPRPRPKESPRP | -0.0206 |
| RRIRCRPPRLPRPRPRPKRAPRP | 0.778 |
| RRIRIRPPRLPRPRPRPCHVPRP | -0.401 |
| RRIRRRPPRLPRPRPRPEYEPRP | -0.022 |
| RRIRVRPPRLPRPRPRPTNHPRP | -0.384 |
| RRIRERPPRLPRPRPRPISLPRP | -0.28 |
| RRIRNRPPRLPRPRPRPPMDPRP | -0.508 |

| Sequence | shrunken log2 fold change |
| --- | --- |
| RRIRVRPPRLPRPRPRPEANPRP | -0.141 |
| RRIRLRPPRLPRPRPRPHQEPRP | -0.00192 |
| RRIRERPPRLPRPRPRPDLVPRP | -0.022 |
| RRIRDRPPRLPRPRPRPRPGPRP | 1.6 |
| RRIRCRPPRLPRPRPRPFYNPRP | -1.05 |
| RRIRLRPPRLPRPRPRPCLWPRP | -0.000705 |
| RRIRIRPPRLPRPRPRPWFLPRP | -0.802 |
| RRIRTRPPRLPRPRPRPTLPPRP | 0.149 |
| RRIRDRPPRLPRPRPRPTQYPRP | -0.191 |
| RRIRDRPPRLPRPRPRPYQLPRP | -0.0742 |
| RRIRLRPPRLPRPRPRPICDPRP | 0.0695 |
| RRIRLRPPRLPRPRPRPVDNPRP | -0.491 |
| RRIRIRPPRLPRPRPRPFSCPRP | -0.534 |
| RRIRGRPPRLPRPRPRPHPSPRP | 0.445 |
| RRIRYRPPRLPRPRPRPWILPRP | -0.482 |
| RRIRPRPPRLPRPRPRPGNFPRP | -0.25 |
| RRIRTRPPRLPRPRPRPHEKPRP | -0.0018 |
| RRIRKRPPRLPRPRPRPTRAPRP | 1.2 |
| RRIRERPPRLPRPRPRPIIGPRP | -0.249 |
| RRIRNRPPRLPRPRPRPRILPRP | -0.0548 |
| RRIRYRPPRLPRPRPRPRGRPRP | 0.142 |
| RRIRLRPPRLPRPRPRPGMPPRP | -0.15 |
| RRIRSRPPRLPRPRPRPSHEPRP | 0.0867 |
| RRIRWRPPRLPRPRPRPSFVPRP | -0.284 |
| RRIRQRPPRLPRPRPRPAWDPRP | 1.54 |

| Sequence | shrunken log2 fold change |
| --- | --- |
| RRIRTRPPRLPRPRPRPGYWPRP | -0.0903 |
| RRIRRRPPRLPRPRPRPMRMPRP | 0.119 |
| RRIRRRPPRLPRPRPRPNGMPRP | -0.0764 |
| RRIRLRPPRLPRPRPRPDAVPRP | -0.199 |
| RRIRARPPRLPRPRPRPFILPRP | -0.39 |
| RRIRVRPPRLPRPRPRPLGKPRP | 0.0149 |
| RRIRARPPRLPRPRPRPSECPRP | 0.145 |
| RRIRFRPPRLPRPRPRPWSPPRP | -0.491 |
| RRIRTRPPRLPRPRPRPDFMPRP | -0.15 |
| RRIRERPPRLPRPRPRPVGLPRP | 0.147 |
| RRIRVRPPRLPRPRPRPFNRPRP | -0.0378 |
| RRIRFRPPRLPRPRPRPKDRPRP | 0.148 |
| RRIRYRPPRLPRPRPRPSPYPRP | -0.709 |
| RRIRKRPPRLPRPRPRPYTIPRP | -0.0634 |
| RRIRPRPPRLPRPRPRPMVWPRP | 0.212 |
| RRIRYRPPRLPRPRPRPATTPRP | -0.415 |
| RRIRDRPPRLPRPRPRPLIMPRP | -0.0616 |
| RRIRFRPPRLPRPRPRPRSDPRP | 0.193 |
| RRIRMRPPRLPRPRPRPINTPRP | -0.387 |
| RRIRSRPPRLPRPRPRPMILPRP | 0.0266 |
| RRIRFRPPRLPRPRPRPCDIPRP | -0.0737 |
| RRIRFRPPRLPRPRPRPAEPPRP | 0.137 |
| RRIRGRPPRLPRPRPRPNESPRP | 0.302 |
| RRIRRRPPRLPRPRPRPPERPRP | 0.643 |
| RRIRMRPPRLPRPRPRPEGSPRP | 3.63 |

| Sequence | shrunken log2 fold change |
| --- | --- |
| RRIRVRPPRLPRPRPRPCRVPRP | 0.00617 |
| RRIRDRPPRLPRPRPRPHPSPRP | 0.0703 |
| RRIRVRPPRLPRPRPRPFRGPRP | 0.0214 |
| RRIRVRPPRLPRPRPRPKAHPRP | -0.00647 |
| RRIRKRPPRLPRPRPRPPACPRP | 0.197 |
| RRIRNRPPRLPRPRPRPVQFPRP | -0.124 |
| RRIRDRPPRLPRPRPRPNRYPRP | -0.0973 |
| RRIRPRPPRLPRPRPRPCEMPRP | 2.11 |
| RRIRSRPPRLPRPRPRPWGIPRP | -0.118 |
| RRIRGRPPRLPRPRPRPPNHPRP | 0.942 |
| RRIRCRPPRLPRPRPRPDYTPRP | -0.442 |
| RRIRNRPPRLPRPRPRPPWQPRP | 0.161 |
| RRIRNRPPRLPRPRPRPRSCPRP | 0.763 |
| RRIRGRPPRLPRPRPRPPEHPRP | 0.853 |
| RRIRNRPPRLPRPRPRPQSKPRP | -0.301 |
| RRIRVRPPRLPRPRPRPKIHPRP | -0.205 |
| RRIRRRPPRLPRPRPRPITSPRP | -0.00199 |
| RRIRARPPRLPRPRPRPYGKPRP | -0.747 |
| RRIRLRPPRLPRPRPRPTISPRP | -0.375 |
| RRIRMRPPRLPRPRPRPGRHPRP | 0.441 |
| RRIRNRPPRLPRPRPRPIRQPRP | 0.0261 |
| RRIRKRPPRLPRPRPRPATPPRP | 0.939 |
| RRIRFRPPRLPRPRPRPQPIPRP | 0.222 |
| RRIRARPPRLPRPRPRPSNPPRP | -0.0677 |
| RRIRSRPPRLPRPRPRPGKWPRP | -0.147 |

| Sequence | shrunken log2 fold change |
| --- | --- |
| RRIRFRPPRLPRPRPRPRDEPRP | 0.278 |
| RRIRMRPPRLPRPRPRPQPLPRP | 0.224 |
| RRIRKRPPRLPRPRPRPAFVPRP | 0.423 |
| RRIRERPPRLPRPRPRPLTLPRP | -0.271 |
| RRIRPRPPRLPRPRPRPPQEPRP | 0.727 |
| RRIRSRPPRLPRPRPRPWAYPRP | -0.107 |
| RRIRKRPPRLPRPRPRPTWPPRP | 0.766 |
| RRIRLRPPRLPRPRPRPEIGPRP | 0.0748 |
| RRIRCRPPRLPRPRPRPDAEPRP | 1.03 |
| RRIRWRPPRLPRPRPRPHYGPRP | -0.0711 |
| RRIRERPPRLPRPRPRPKQVPRP | -0.131 |
| RRIRSRPPRLPRPRPRPFIAPRP | -0.275 |
| RRIRNRPPRLPRPRPRPLRFPRP | 0.426 |
| RRIRPRPPRLPRPRPRPQGEPRP | 0.208 |
| RRIRARPPRLPRPRPRPVTIPRP | -0.207 |
| RRIRQRPPRLPRPRPRPQGSPRP | 0.0165 |
| RRIRDRPPRLPRPRPRPAMQPRP | 0.194 |
| RRIRIRPPRLPRPRPRPCLKPRP | -0.16 |
| RRIRHRPPRLPRPRPRPPCHPRP | -0.253 |
| RRIRGRPPRLPRPRPRPEYFPRP | 0.11 |
| RRIRERPPRLPRPRPRPIKSPRP | -0.611 |
| RRIRLRPPRLPRPRPRPTPEPRP | 0.181 |
| RRIRFRPPRLPRPRPRPGTTPRP | -0.032 |
| RRIRPRPPRLPRPRPRPPHEPRP | -0.0736 |
| RRIRARPPRLPRPRPRPFLHPRP | 0.0154 |

Reference: the supplement of paper PMC9112550, “Optimization of the antimicrobial peptide Bac7 by deep mutational scanning” (BMC Biology, 2022)
